Results from the supplement of paper PMC11246515.
± gives the standard deviation of the averaged measurements.

Experiment: total protein half-life in vivo (active degradation + dilution); higher = more stable protein
[1] = E. coli NCM3722 delta-clpP delta-lon delta-hslV, growth: N-lim chemostat, doubling time 6 h
[2] = E. coli NCM3722 delta-lon, growth: N-lim chemostat, doubling time 6 h
[3] = E. coli NCM3722 delta-clpP, growth: N-lim chemostat, doubling time 6 h
[4] = E. coli NCM3722 delta-hslV, growth: N-lim chemostat, doubling time 6 h
[5] = E. coli NCM3722 delta-smpB, growth: N-lim chemostat, doubling time 6 h
[6] = wild type E. coli NCM3722, growth: C-lim chemostat, doubling time 3 h
[7] = wild type E. coli NCM3722, growth: C-lim chemostat, doubling time 6 h
[8] = wild type E. coli NCM3722, growth: C-lim chemostat, doubling time 12 h
[9] = wild type E. coli NCM3722, growth: N-lim chemostat, doubling time 6 h
[10] = wild type E. coli NCM3722, growth: N-lim chemostat, doubling time 12 h
[11] = wild type E. coli NCM3722, growth: P-lim chemostat, doubling time 6 h
[12] = wild type E. coli NCM3722, growth: P-lim chemostat, doubling time 12 h

Row | Sequence | total protein half-life in vivo [1] | total protein half-life in vivo [2] | total protein half-life in vivo [3] | total protein half-life in vivo [4] | total protein half-life in vivo [5] | total protein half-life in vivo [6] | total protein half-life in vivo [7] | total protein half-life in vivo [8] | total protein half-life in vivo [9] | total protein half-life in vivo [10] | total protein half-life in vivo [11] | total protein half-life in vivo [12]
1 | MSNQGEYPEDNRVGKHEPHDLSLTRRDLIKVSAATAATAVVYPHSTLAASVPAATPAPEIMPLTLKVNGKTEQLEVDTRTTLLDTLRENLHLIGTKKGCDHGQCGACTVLVNGRRLNACLTLAVMHQGAEITTIEGLGSPDNLHPMQAAFIKHDGFQCGYCTSGQICSSVAVLKEIQDGIPSHVTVDLVSAPETTADEIRERMSGNICRCGAYANILAAIEDAAGEIKS | 2.91 ± 0.9 h | 2.02 h |  |  |  |  |  |  |  |  |  | 
2 | MAEFETTFADLGLKAPILEALNDLGYEKPSPIQAECIPHLLNGRDVLGMAQTGSGKTAAFSLPLLQNLDPELKAPQILVLAPTRELAVQVAEAMTDFSKHMRGVNVVALYGGQRYDVQLRALRQGPQIVVGTPGRLLDHLKRGTLDLSKLSGLVLDEADEMLRMGFIEDVETIMAQIPEGHQTALFSATMPEAIRRITRRFMKEPQEVRIQSSVTTRPDISQSYWTVWGMRKNEALVRFLEAEDFDAAIIFVRTKNATLEVAEALERNGYNSAALNGDMNQALREQTLERLKDGRLDILIATDVAARGLDVERISLVVNYDIPMDSESYVHRIGRTGRAGRAGRALLFVENRERRLLRNIERTMKLTIPEVELPNAELLGKRRLEKFAAKVQQQLESSDLDQYRALLSKIQPTAEGEELDLETLAAALLKMAQGERTLIVPPDAPMRPKREFRDRDDRGPRDRNDRGPRGDREDRPRRERRDVGDMQLYRIEVGRDDGVEVRHIVGAIANEGDISSRYIGNIKLFASHSTIELPKGMPGEVLQHFTRTRILNKPMNMQLLGDAQPHTGGERRGGGRGFGGERREGGRNFSGERREGGRGDGRRFSGERREGRAPRRDDSTGRRRFGGDA [P0A9P6] | 5.66 ± 0.077 h | 4.78 ± 0.32 h | 0.972 ± 0.029 h | 0.567 ± 0.1 h | 0.849 ± 0.089 h | 1.4 ± 0.34 h | 1.34 ± 0.29 h | 1.19 ± 0.17 h | 2.26 ± 2 h | 0.902 ± 0.095 h | 0.635 ± 0.37 h | 0.864 ± 0.3 h
3 | MNSLTTHYRRSQLIALPVPGGKAKVEYCYAVNVPGDREIVTHSFAEWAVGDFNRQKETVLCDKLTAGSKITTECPSESFVGSRKHNGLSTSAKVMSMNASARSNSFVVNSGK | 1.84 h |  |  |  |  |  |  |  |  |  |  | 
4 | MALPRITQKEMTEREQRELKTLLDRARIAHGRVLTNSETNSIKKDYIDKLMVEREAEAKKARQLKKKQAYKPDPEASFSWSANTSTRGRR | 5.58 ± 1 h | 1.63 h |  | 1.79 ± 0.25 h | 2.02 h |  | 1.65 h | 2.08 h |  | 2.87 ± 0.66 h |  | 
5 | MHSLQRKVLRTICPDQKGLIARITNICYKHELNIVQNNEFVDHRTGRFFMRTELEGIFNDSTLLADLDSALPEGSVRELNPAGRRRIVILVTKEAHCLGDLLMKANYGGLDVEIAAVIGNHDTLRSLVERFDIPFELVSHEGLTRNEHDQKMADAIDAYQPDYVVLAKYMRVLTPEFVARFPNKIINIHHSFLPAFIGARPYHQAYERGVKIIGATAHYVNDNLDEGPIIMQDVIHVDHTYTAEDMMRAGRDVEKNVLSRALYKVLAQRVFVYGNRTIIL | 5.61 ± 0.48 h | 5.71 ± 1.4 h | 5.19 ± 0.2 h | 4.71 ± 0.23 h | 4.94 ± 0.19 h | 2.78 ± 0.4 h | 6.27 ± 1.3 h | 10.5 ± 0.78 h | 4.8 ± 0.3 h | 9.08 ± 0.9 h | 5.77 ± 0.26 h | 12.6 ± 0.46 h
6 | MLQSNEYFSGKVKSIGFSSSSTGRASVGVMVEGEYTFSTAEPEEMTVISGALNVLLPDATDWQVYEAGSVFNVPGHSEFHLQVAEPTSYLCRYL [P0C037] | 5.23 ± 0.64 h | 4.706 ± 0.03 h | 3.8 ± 0.061 h | 3.59 ± 0.28 h | 3.46 ± 0.4 h | 2.75 ± 0.14 h | 5.02 ± 0.079 h | 9.73 ± 2.5 h | 3.78 ± 0.38 h | 5.6 h | 4.25 ± 0.35 h | 6.87 ± 0.11 h
7 | MRILVLGVGNILLTDEAIGVRIVEALEQRYILPDYVEILDGGTAGMELLGDMANRDHLIIADAIVSKKNAPGTMMILRDEEVPALFTNKISPHQLGLADVLSALRFTGEFPKKLTLVGVIPESLEPHIGLTPTVEAMIEPALEQVLAALRESGVEAIPREAIHD | 5.25 ± 0.57 h | 5.3 ± 0.96 h | 4.51 ± 0.38 h | 4.14 ± 0.58 h | 3.53 ± 0.16 h | 3.09 ± 0.27 h | 5.7 ± 1.1 h | 11.5 ± 0.37 h | 4.28 ± 0.7 h | 6.81 ± 0.15 h | 6.77 ± 0.8 h | 11 ± 0.18 h
8 | MNKILLVDDDRELTSLLKELLEMEGFNVIVAHDGEQALDLLDDSIDLLLLDVMMPKKNGIDTLKALRQTHQTPVIMLTARGSELDRVLGLELGADDYLPKPFNDRELVARIRAILRRSHWSEQQQNNDNGSPTLEVDALVLNPGRQEASFDGQTLELTGTEFTLLYLLAQHLGQVVSREHLSQEVLGKRLTPFDRAIDMHISNLRRKLPDRKDGHPWFKTLRGRGYLMVSAS [P0AE88] | 5.73 ± 0.89 h |  | 4.96 ± 0.36 h | 4.848 ± 0.016 h | 5.11 ± 0.091 h | 3.28 ± 0.5 h | 5.44 ± 0.21 h | 11.4 ± 0.69 h | 6 ± 1.4 h | 8.76 ± 0.57 h | 6.01 ± 0.11 h | 10.9 ± 0.17 h
9 | MQREDVLGEALKLLELQGIANTTLEMVAERVDYPLDELRRFWPDKEAILYDALRYLSQQIDVWRRQLMLDETQTAEQKLLARYQALSECVKNNRYPGCLFIAACTFYPDPGHPIHQLADQQKSAAYDFTHELLTTLEVDDPAMVAKQMELVLEGCLSRMLVNRSQADVDTAHRLAEDILRFARCRQGGALT [P0ACU7] | 3.74 ± 0.51 h | 3.78 ± 0.57 h | 3.63 ± 0.25 h | 4.07 ± 0.91 h | 3.411 ± 0.028 h | 2.94 ± 0.46 h | 4.86 ± 0.17 h | 10.4 ± 2.6 h | 3.44 ± 0.037 h | 5.51 ± 0.28 h | 5.04 ± 0.78 h | 12 ± 0.99 h
